Each block holds one binder with its values, some of them ahead of it.
Legend:
Experiment in all cases: pull-down
His-Erk1 = His-Erk1 (human, UniProt P27361 1-379)
GST-Erk1 = GST-Erk1 (human, UniProt P27361 1-379)
GST-Erk2 = GST-Erk2 (human, UniProt P28482 1-360)
Chain of GST-Erk2 (P28482 whole entry): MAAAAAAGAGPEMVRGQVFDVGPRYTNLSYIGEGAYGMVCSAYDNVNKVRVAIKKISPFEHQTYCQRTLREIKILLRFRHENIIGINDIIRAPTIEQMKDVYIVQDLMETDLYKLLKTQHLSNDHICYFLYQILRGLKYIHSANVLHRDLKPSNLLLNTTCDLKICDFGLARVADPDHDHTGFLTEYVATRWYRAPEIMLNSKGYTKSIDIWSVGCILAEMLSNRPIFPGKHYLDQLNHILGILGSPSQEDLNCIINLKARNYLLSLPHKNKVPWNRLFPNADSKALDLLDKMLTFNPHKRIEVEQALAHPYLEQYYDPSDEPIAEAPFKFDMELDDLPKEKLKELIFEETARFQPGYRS

Chain of GST-Erk1 (P27361 whole entry): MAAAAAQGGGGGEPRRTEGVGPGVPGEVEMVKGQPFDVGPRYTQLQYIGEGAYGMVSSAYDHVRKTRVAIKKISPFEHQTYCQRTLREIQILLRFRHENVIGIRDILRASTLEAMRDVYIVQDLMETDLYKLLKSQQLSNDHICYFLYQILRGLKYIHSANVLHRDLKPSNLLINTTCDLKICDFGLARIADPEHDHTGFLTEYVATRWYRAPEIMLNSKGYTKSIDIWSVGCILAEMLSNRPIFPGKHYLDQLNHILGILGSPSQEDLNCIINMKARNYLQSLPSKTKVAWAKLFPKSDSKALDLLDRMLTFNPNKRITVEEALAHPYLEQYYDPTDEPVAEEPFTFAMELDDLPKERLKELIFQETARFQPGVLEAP
Chain of His-Erk1 (P27361 whole entry): as above

binding result (His-Erk1): binds
B1: GST-Arl4D (natural protein, human, UniProt P49703 1-201, looked up)
chain: MGNHLTEMAPTASSFLPHFQALHVVVIGLDSAGKTSLLYRLKFKEFVQSVPTKGFNTEKIRVPLGGSRGITFQVWDVGGQEKLRPLWRSYTRRTDGLVFVVDAAEAERLEEAKVELHRISRASDNQGVPVLVLANKQDQPGALSAAEVEKRLAVRELAAATLTHVQGCSAVDGLGLQQGLERLYEMILKRKKAARGGKKRR

binding result (GST-Erk1): binds
binding result (GST-Erk2): binds
B2: His-Arl4D (natural protein, human, UniProt P49703 1-201, looked up)
chain: B1 chain

Source: doi:10.1101/2024.12.02.626348 (bioRxiv, 2024)
